Data set [1] addresses T1, La (LARP3, La/SSB), recombinant His-tagged wildtype (human, UniProt P05455 1-408).
T1 sequence: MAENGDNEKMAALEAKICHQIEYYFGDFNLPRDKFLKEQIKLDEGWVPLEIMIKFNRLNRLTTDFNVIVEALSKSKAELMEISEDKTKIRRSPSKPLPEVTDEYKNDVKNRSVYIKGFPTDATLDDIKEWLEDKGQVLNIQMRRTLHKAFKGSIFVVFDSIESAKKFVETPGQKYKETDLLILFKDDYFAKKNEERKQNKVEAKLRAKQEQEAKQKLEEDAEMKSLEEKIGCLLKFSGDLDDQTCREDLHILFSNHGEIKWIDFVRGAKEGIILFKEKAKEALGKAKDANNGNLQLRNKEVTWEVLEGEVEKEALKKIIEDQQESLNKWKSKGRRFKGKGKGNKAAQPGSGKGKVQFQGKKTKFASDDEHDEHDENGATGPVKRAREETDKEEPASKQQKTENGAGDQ
In words: fluorescence polarization; 25 nM RNA; EMSA and FP: 25 nM FAM-RNA, 0-600 nM La; competition FP: 200 nM La; buffer, salt, pH and temperature not given (cited to ref 21). Particulars: protein: recombinant; tags: His; label: 5' 6-FAM; stem-loop embedding the AUG (mfold). In general terms: Fluorescence polarisation rises when a labelled molecule tumbles more slowly, as on binding a larger partner.

The target in data set [2] is T1, La (LARP3, La/SSB), recombinant …. In words: EMSA; 25 nM RNA, 0-600 nM La; EMSA and FP: 25 nM FAM-RNA, 0-600 nM La; competition FP: 200 nM La; buffer, salt, pH and temperature not given (cited to ref 21). Particulars: protein: recombinant; tags: His; label: 5' 6-FAM; stem-loop embedding the AUG (mfold).

For CCCGUUGCUUUUCCUCUGGGAAGGAUGGCGCACGCUGGG (structured_RNA) [Bcl2_WT RNA oligonucleotide, FAM-labeled (-24 to +15)], the Kd came to 60.1 ± 4.5 nM in data set [1] and 50.5 ± 5.9 nM in data set [2].

In general, Kd refers to the free concentration of one partner at which half of the binding sites on the other are occupied at equilibrium, for simple one-to-one binding.

The values above are taken from paper PMC5045424, “The La protein counteracts cisplatin-induced cell death by stimulating protein synthesis of anti-apoptotic factor Bcl2”.
